Experimental findings from publication PMC2628355, “The inhibition of assembly of HIV-1 virus-like particles by 3-O-(3',3'-dimethylsuccinyl) betulinic acid (DSB) is counteracted by Vif and requires its Zinc-binding domain” (Virology Journal, 2008) are described below.

Data set [1] deals with VifsubCΔ170, triple mutant of HIV-1 Vif (subA+subB and deletion of the 23 C-terminal residues) (HIV-1). The data set can be described thus: SDS-PAGE and immunoblotting (dimer band); whole cell lysates or VLP of baculovirus-infected Sf9 cells on SDS-denaturing 12% polyacrylamide gels, blotted with anti-His or anti-Vif antibody; a band at twice the monomer's mass.
Data set [2] deals with the molecule itself. The data set is described as above.

“VifsubCΔ170, triple mutant of HIV-1 Vif (subA+subB and deletion of the 23 C-terminal residues) (domain or fragment)” showed a stoichiometry N in data set [1] of 2.

B1: oligohistidine-tagged HIV-1 Vpr protein (natural protein, UniProt P69726 1-96, looked up)
chain: MEQAPEDQGPQREPHNEWTLELLEELKNEAVRHFPRIWLHGLGQHIYETYGDTWAGVEAIIRILQQLLFIHFRIGCRHSRIGVTRQRRARNGASRS
notes: HIV-1 Vpr; also called His-tagged Vpr; source: Sf9 cells infected with recombinant baculovirus AcMNPV-Vpr (obtained from Eric Cohen); in cells and in extracellular VLP
With B1, the “stoichiometry N” value in data set [2] was 2.
